The record followed here is patent publication EP4431526A1 (Emfret Analytics GmbH & Co. KG, dated 2024).

T1: human GPVI-Fc fusion protein (human, UniProt Q9HCN6 21-267, limits assumed)
T1 construct: also called human GPVI protein antigen
T1 sequence (looked up): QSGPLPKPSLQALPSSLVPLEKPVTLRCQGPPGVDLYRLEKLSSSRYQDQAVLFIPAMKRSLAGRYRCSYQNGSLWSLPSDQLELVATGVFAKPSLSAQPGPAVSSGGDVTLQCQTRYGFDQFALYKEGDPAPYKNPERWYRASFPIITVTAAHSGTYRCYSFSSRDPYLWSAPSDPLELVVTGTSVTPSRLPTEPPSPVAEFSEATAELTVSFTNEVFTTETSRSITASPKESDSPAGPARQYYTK

B1: HC5 LC1 humanized Fab (Fab, V domains shown)
VH: QVQLQESGPGLVKPSETLSLTCTVSGFSLTSYGVTWIRQPPGKGLEWIGVIWGDGSTNYHSGLRSRVTISVDTSKNQFSLKLSSVTAADTAVYYCAKPIYYDFDDDAMDYWGQGTSVTVSS
VL: EIVLTQSPSSLSASVGDRVTITCKASQNVGTYVAWFQQKPGKAPKSLIYSASYRCSGVPSKFSGSGSGTDFTLTISSLQPEDFATYYCHQYNNYPLTFGQGTKLEIKR
notes: also called VH5:VL1
B2: HC1 LC3 humanized Fab (Fab, V domains shown)
VH: QVQLQESGPGLVKPSETLSLTCTASGFSLTSYGVTWIRQPPGKGLEWIGVIWGDGSTNYHSGLRSRVTISVDTSKSQFSLKLSSVTAADTAVYYCAKPIYYDFDDDAMDYWGQGTLVTVSS
VL: DIQLTQSPSTLSASVGDRVTITCKASQNVGTYVAWYQQKPGKAPKLLIYSASYRCSGVPSRFSGSGSGTEFTLTISSLQPDDFTTYYCHQYNNYPLTFGQGTKVEIKR
notes: also called VH1:VL3
B3: HC3 LC1 humanized Fab (Fab, V domains shown)
VH: QVQLVESGGGVVQPGRSLRLSCVASGFSLTSYGVTWVRQAPGKGLEWVAVIWGDGSTNYHSGLRSRFTISRDNSKNTMFLQMNSLRADDTAVYYCAKPIYYDFDDDAMDYWGQGTLVTVSS
VL: EIVLTQSPSSLSASVGDRVTITCKASQNVGTYVAWFQQKPGKAPKSLIYSASYRCSGVPSKFSGSGSGTDFTLTISSLQPEDFATYYCHQYNNYPLTFGQGTKLEIKR
notes: also called VH3:VL1
B4: HC2 LC3 humanized Fab (Fab, V domains shown)
VH: EVQLVESGPGLVKPSETLSLTCTVSGFSLTSYGVTWIRQPPGKGLEWIGVIWGDGSTNYHSGLRSRVTISVDTSKNQFSLKLSSVTAADTAVYYCAKPIYYDFDDDAMDYWGQGTLVTVSS
VL: DIQLTQSPSTLSASVGDRVTITCKASQNVGTYVAWYQQKPGKAPKLLIYSASYRCSGVPSRFSGSGSGTEFTLTISSLQPDDFTTYYCHQYNNYPLTFGQGTKVEIKR
notes: also called VH2:VL3
B5: HC5 LC4 humanized Fab (Fab, V domains shown)
VH: QVQLQESGPGLVKPSETLSLTCTVSGFSLTSYGVTWIRQPPGKGLEWIGVIWGDGSTNYHSGLRSRVTISVDTSKNQFSLKLSSVTAADTAVYYCAKPIYYDFDDDAMDYWGQGTSVTVSS
VL: DIVMTQSPATLSLSPGDRATLSCKASQNVGTYVAWYQQKPGQAPRLLIYSASYRCSGIPARFSGSGSGTDFTLTISSLQSEDFAVYYCHQYNNYPLTFGGGTKVEIKR
notes: also called VH5:VL4
B6: HC2 LC4 humanized Fab (Fab, V domains shown)
VH: EVQLVESGPGLVKPSETLSLTCTVSGFSLTSYGVTWIRQPPGKGLEWIGVIWGDGSTNYHSGLRSRVTISVDTSKNQFSLKLSSVTAADTAVYYCAKPIYYDFDDDAMDYWGQGTLVTVSS
VL: DIVMTQSPATLSLSPGDRATLSCKASQNVGTYVAWYQQKPGQAPRLLIYSASYRCSGIPARFSGSGSGTDFTLTISSLQSEDFAVYYCHQYNNYPLTFGGGTKVEIKR
notes: also called VH2:VL4
B7: HC2 LC2 humanized Fab (Fab, V domains shown)
VH: EVQLVESGPGLVKPSETLSLTCTVSGFSLTSYGVTWIRQPPGKGLEWIGVIWGDGSTNYHSGLRSRVTISVDTSKNQFSLKLSSVTAADTAVYYCAKPIYYDFDDDAMDYWGQGTLVTVSS
VL: DIQMTQSPSSLSASVGDRVTITCKASQNVGTYVAWFQQRPGKAPKSLIYSASYRCSGVPSKFSGSGSGTDFTLTINSLQPEDFATYYCHQYNNYPLTFGQGTKVEIKR
notes: also called VH2:VL2; EMF602
B8: HC5 LC3 humanized Fab (Fab, V domains shown)
VH: QVQLQESGPGLVKPSETLSLTCTVSGFSLTSYGVTWIRQPPGKGLEWIGVIWGDGSTNYHSGLRSRVTISVDTSKNQFSLKLSSVTAADTAVYYCAKPIYYDFDDDAMDYWGQGTSVTVSS
VL: DIQLTQSPSTLSASVGDRVTITCKASQNVGTYVAWYQQKPGKAPKLLIYSASYRCSGVPSRFSGSGSGTEFTLTISSLQPDDFTTYYCHQYNNYPLTFGQGTKVEIKR
notes: also called VH5:VL3
B9: HC5 LC2 humanized Fab (Fab, V domains shown)
VH: QVQLQESGPGLVKPSETLSLTCTVSGFSLTSYGVTWIRQPPGKGLEWIGVIWGDGSTNYHSGLRSRVTISVDTSKNQFSLKLSSVTAADTAVYYCAKPIYYDFDDDAMDYWGQGTSVTVSS
VL: DIQMTQSPSSLSASVGDRVTITCKASQNVGTYVAWFQQRPGKAPKSLIYSASYRCSGVPSKFSGSGSGTDFTLTINSLQPEDFATYYCHQYNNYPLTFGQGTKVEIKR
notes: also called VH5:VL2
B10: HC1 LC4 humanized Fab (Fab, V domains shown)
VH: QVQLQESGPGLVKPSETLSLTCTASGFSLTSYGVTWIRQPPGKGLEWIGVIWGDGSTNYHSGLRSRVTISVDTSKSQFSLKLSSVTAADTAVYYCAKPIYYDFDDDAMDYWGQGTLVTVSS
VL: DIVMTQSPATLSLSPGDRATLSCKASQNVGTYVAWYQQKPGQAPRLLIYSASYRCSGIPARFSGSGSGTDFTLTISSLQSEDFAVYYCHQYNNYPLTFGGGTKVEIKR
notes: also called VH1:VL4
B11: HC2 LC1 humanized Fab (Fab, V domains shown)
VH: EVQLVESGPGLVKPSETLSLTCTVSGFSLTSYGVTWIRQPPGKGLEWIGVIWGDGSTNYHSGLRSRVTISVDTSKNQFSLKLSSVTAADTAVYYCAKPIYYDFDDDAMDYWGQGTLVTVSS
VL: EIVLTQSPSSLSASVGDRVTITCKASQNVGTYVAWFQQKPGKAPKSLIYSASYRCSGVPSKFSGSGSGTDFTLTISSLQPEDFATYYCHQYNNYPLTFGQGTKLEIKR
notes: also called VH2:VL1
B12: HC1 LC1 humanized Fab (Fab, V domains shown)
VH: QVQLQESGPGLVKPSETLSLTCTASGFSLTSYGVTWIRQPPGKGLEWIGVIWGDGSTNYHSGLRSRVTISVDTSKSQFSLKLSSVTAADTAVYYCAKPIYYDFDDDAMDYWGQGTLVTVSS
VL: EIVLTQSPSSLSASVGDRVTITCKASQNVGTYVAWFQQKPGKAPKSLIYSASYRCSGVPSKFSGSGSGTDFTLTISSLQPEDFATYYCHQYNNYPLTFGQGTKLEIKR
notes: Monovalent 50 kDa Fab from CHO; also called VH1:VL1
B13: HC0 LC0 chimeric Fab fragment (Fab, V domains shown)
VH: QVQLKESGPGLVQPSQSLSITCTVSGFSLTSYGVTWVRQPPGKGLEWLGVIWGDGSTNYHSGLRSRLSISRDDSKSQVFLKLNSLQTDDTATYYCAKPIYYDFDDDAMDYWGQGTSVTVSS
VL: DIVMTQSQKFMSTSVGDRVSVTCKASQNVGTYVAWFQQKPGQSPKTLIYSASYRCSGVPDRFTGSGSGTDFTLTISNVQSDDLAEYFCHQYNNYPLTFGAGTKLELRR
notes: Murine variable domains with human Ig constant domains, expressed in CHO; also called HC0 LCD; chimeric control antibody

The assay concerns the target T1, human GPVI-Fc fusion protein. The assay is described as follows: BLI (Octet), GPVI-Fc on biosensor, 1:1 fit.
B1 displayed an equilibrium dissociation constant (Kd) of 0.333 nM, a koff of 0.000261 s⁻¹ and an on-rate constant (kon) of 782000 M⁻¹ s⁻¹.

The molecule B2 displayed a Kd of 0.284 nM, an off-rate constant (koff) of 0.000221 s⁻¹ and an association rate constant (kon) of 777000 M⁻¹ s⁻¹.

Take B3: the dissociation constant (Kd) worked out at 0.353 nM, the koff is 0.000587 s⁻¹ and the on-rate (kon) was determined as 1.66e+06 M⁻¹ s⁻¹.

As for B4, the Kd was 0.25 nM, the koff was 0.000144 s⁻¹ and the on-rate constant (kon) stood at 576000 M⁻¹ s⁻¹.

The molecule B5 gave a dissociation constant (Kd) of 0.554 nM, a dissociation rate constant (koff) of 0.000319 s⁻¹ and an on-rate (kon) of 576000 M⁻¹ s⁻¹.

As for B6, the Kd came to 0.693 nM, the koff amounted to 0.0011 s⁻¹ and the on-rate constant (kon) is 1.59e+06 M⁻¹ s⁻¹.

In turn, B7 had a dissociation constant Kd of 0.175 nM, an off-rate (koff) of 0.000162 s⁻¹ and an association rate constant (kon) of 931000 M⁻¹ s⁻¹.

B8 displayed a Kd of 0.637 nM, a dissociation rate constant (koff) of 0.000437 s⁻¹ and an on-rate constant (kon) of 686000 M⁻¹ s⁻¹.

B9 yielded a Kd of 0.367 nM, a dissociation rate constant (koff) of 0.00024 s⁻¹ and an on-rate constant (kon) of 655000 M⁻¹ s⁻¹.

On to B10, for which the affinity, expressed as Kd, was 0.496 nM; the off-rate constant (koff) is 0.000333 s⁻¹; the kon was 671000 M⁻¹ s⁻¹.

As to B11, the Kd came out at 0.269 nM, the koff was found to be 0.000189 s⁻¹ and the kon came out at 703000 M⁻¹ s⁻¹.

Consider B12, for which binding was put at a Kd of 0.413 nM, the off-rate constant (koff) stood at 0.000332 s⁻¹ and the kon turned out to be 804000 M⁻¹ s⁻¹.

In turn, B13 displayed a Kd of 0.427 nM, a koff of 0.000212 s⁻¹ and a kon of 496000 M⁻¹ s⁻¹.
